Reference: the supplement of paper PMC7877785
± gives the uncertainty stated by the source.

Assay: self-splicing fitness, log relative to wild type (ln ratio); higher = more splicing; Tetrahymena group I intron in knt gene, E. coli kanamycin selection, DiMSum; sequences stand for … in CUCUCU…GGAGGGAAAAGUUAUCAGGCAUGCACCUGGUAGCUAGUCUUUAAACCAAUAGAUUGCAUCGGUUUAAAAGGCAAGACCGUCAAAUUGCGGGAAAGGGGUCAACAGCCGUUCAGUACCAAGUCUCAGGGGAAACUUUGAGAUGGCCUUGCAAAGGGUAUGGUAAUAAGCUGACGGACAUGGUCCUAACCACGCAGCCAAGUCCUAAGUCAACAGAUCUUCUGUUGAUAUGGAUGCAGUUCACAGACUAAAUGUCGGUCGGGGAAGAUGUAUUCUUCUCAUAAGAUAUAGUCGGACCUCUCCUUAAUGGGAGCUAGCGGAUGAAGUGAUGCAACACUGGAGCCGCUGGGAACUAAUUUGUAUGCGAAAGUAUAUUGAUUAGUUUUGGAGUACUCGUGGUCG
Outline: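 Colonies from six replicate transformations of E. coli BL21(DE3) were pooled and amplicon-sequenced on an Illumina HiSeq 2500. The library placed an intron with all eight P1ex-region nucleotides randomised inside the knt kanamycin-resistance gene on pET-22b(+), and cells grew overnight at 37°C or 30°C on LB agar with or without 25 μg/mL kanamycin (plus 100 μg/mL carbenicillin, 50 μM IPTG, 0.2% rhamnose). Fitness is the DiMSum error-weighted combination of wild-type-normalised replicate fold changes, kanamycin versus none.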

Row | Sequence | self-splicing fitness (ln) (30 °C) | self-splicing fitness (ln) (37 °C)
1 | CUCAAGCAAUAUUACGGGCU | -4.09 ± 0.27 | -3 ± 0.26
2 | UGCUAGCAAUAUUACGAGCG | -2.86 ± 0.2 | -0.792 ± 0.17
3 | UUCUAGCAAUAUUACGGAAA | – | -1.4 ± 0.45
4 | AUCCAGCAAUAUUACGCCGA | -1.37 ± 0.1 | -0.75 ± 0.14
5 | UAGCAGCAAUAUUACGUAGA | -2.62 ± 0.072 | -1.11 ± 0.079
6 | UAGAAGCAAUAUUACGUUCG | -0.157 ± 0.067 | 0.264 ± 0.088
7 | GCAUAGCAAUAUUACGCCGG | -3 ± 0.28 | -1.01 ± 0.2
8 | CCUGAGCAAUAUUACGAGGC | -3.18 ± 0.43 | -1.54 ± 0.26
9 | AUUUAGCAAUAUUACGCGCC | -0.641 ± 0.26 | -0.828 ± 0.34
10 | GUCCAGCAAUAUUACGAAAA | -1.1 ± 0.2 | -0.701 ± 0.13
11 | AGCUAGCAAUAUUACGCCAC | -3.18 ± 0.32 | -2.45 ± 0.42
12 | AAGGAGCAAUAUUACGUUCU | -2.47 ± 0.14 | -1.09 ± 0.12
13 | GCUCAGCAAUAUUACGUCGU | -0.158 ± 0.057 | 0.486 ± 0.082
14 | AGGAAGCAAUAUUACGCGUU | -2.55 ± 0.17 | -1.01 ± 0.17
15 | AAAAAGCAAUAUUACGGUUC | -2.7 ± 0.18 | -1.81 ± 0.21
16 | CUGGAGCAAUAUUACGGCAC | -3.28 ± 0.32 | -2.35 ± 0.39
17 | CCUGAGCAAUAUUACGUGGC | -3.15 ± 0.24 | –
18 | GAGUAGCAAUAUUACGAUAG | -3.53 ± 0.26 | -2.61 ± 0.28
19 | UGUCAGCAAUAUUACGAAGC | -3.79 ± 0.18 | -0.785 ± 0.17
20 | ACGAAGCAAUAUUACGAGGC | -3.62 ± 0.21 | -1.81 ± 0.16
21 | CUCAAGCAAUAUUACGGCGU | -2.09 ± 0.23 | -2.39 ± 0.46
22 | UAUCAGCAAUAUUACGCGGA | -0.964 ± 0.081 | -0.0724 ± 0.076
23 | AAUCAGCAAUAUUACGAAGG | -1.16 ± 0.071 | -0.793 ± 0.099
24 | CCUCAGCAAUAUUACGCCUU | -3.95 ± 0.3 | -2.17 ± 0.22
25 | CACCAGCAAUAUUACGACCC | -3.82 ± 0.25 | -2.98 ± 0.28
26 | ACUCAGCAAUAUUACGCAGG | -1.99 ± 0.11 | -1.35 ± 0.13

Row | Sequence | self-splicing fitness (ln) (30 °C) | self-splicing fitness (ln) (37 °C)
27 | GCAGAGCAAUAUUACGUAAA | -2.76 ± 0.19 | -3.33 ± 0.42
28 | GUAUAGCAAUAUUACGUCAA | -2.37 ± 0.37 | -2.86 ± 0.32
29 | CUAUAGCAAUAUUACGAUAA | -1.1 ± 0.11 | -0.839 ± 0.17
30 | GCCAAGCAAUAUUACGUGGA | -0.758 ± 0.049 | -0.303 ± 0.052
31 | GGAGAGCAAUAUUACGAGUC | -3.63 ± 0.35 | –
32 | GCAGAGCAAUAUUACGUCCC | – | -1.04 ± 0.34
33 | UCAAAGCAAUAUUACGAAGA | -2.21 ± 0.18 | -1.02 ± 0.13
34 | ACCUAGCAAUAUUACGCAGC | -1.43 ± 0.095 | -1.46 ± 0.12
35 | AUUAAGCAAUAUUACGCCUC | -2.77 ± 0.18 | -1.42 ± 0.16
36 | UCCAAGCAAUAUUACGGCCU | -2.33 ± 0.29 | -2.6 ± 0.27
37 | GAUUAGCAAUAUUACGCAAU | -2.41 ± 0.33 | -1.9 ± 0.36
38 | UUCAAGCAAUAUUACGUGUU | -3.23 ± 0.13 | -1.72 ± 0.11
39 | GACUAGCAAUAUUACGACUG | -1.64 ± 0.1 | 0.0415 ± 0.13
40 | AUCAAGCAAUAUUACGUCUC | -2.08 ± 0.087 | -1.16 ± 0.11
41 | ACCUAGCAAUAUUACGUACC | -1.59 ± 0.099 | -0.156 ± 0.11
42 | GGUAAGCAAUAUUACGGGAU | -2.82 ± 0.27 | -0.913 ± 0.21
43 | CGGAAGCAAUAUUACGAAGU | – | -2.81 ± 0.44
44 | UCACAGCAAUAUUACGAUGG | -1.52 ± 0.06 | -0.512 ± 0.081
45 | UUCGAGCAAUAUUACGUAAA | -2.48 ± 0.19 | -1.07 ± 0.16
46 | CGUCAGCAAUAUUACGAAGU | -3.92 ± 0.19 | -2.94 ± 0.21
47 | GGCUAGCAAUAUUACGGUGU | -0.416 ± 0.062 | 0.178 ± 0.069
48 | GCCAAGCAAUAUUACGUGGC | -3.84 ± 0.2 | -3.04 ± 0.28
49 | UGUCAGCAAUAUUACGCACC | -1.28 ± 0.18 | -0.269 ± 0.21
50 | GCCUAGCAAUAUUACGGUGU | -0.374 ± 0.054 | 0.0553 ± 0.064
51 | AGCUAGCAAUAUUACGCACC | -0.833 ± 0.15 | -0.409 ± 0.19
52 | GGGUAGCAAUAUUACGCUGA | -2.05 ± 0.15 | 0.00831 ± 0.17

Row | Sequence | self-splicing fitness (ln) (30 °C) | self-splicing fitness (ln) (37 °C)
53 | UCUUAGCAAUAUUACGGCAU | -3.42 ± 0.33 | -1.75 ± 0.23
54 | GAUGAGCAAUAUUACGAAGU | -2.87 ± 0.22 | -2.84 ± 0.28
55 | AUGGAGCAAUAUUACGUUGG | -4.65 ± 0.39 | -2.35 ± 0.23
56 | CUUAAGCAAUAUUACGGGCU | -3.84 ± 0.23 | -2.98 ± 0.25
57 | AACGAGCAAUAUUACGAUAC | -2.52 ± 0.37 | -1.97 ± 0.46
58 | UAGGAGCAAUAUUACGGCUC | -2.64 ± 0.24 | –
59 | UAGCAGCAAUAUUACGGCGG | -0.483 ± 0.084 | -0.353 ± 0.13
60 | UCUCAGCAAUAUUACGUUAG | -3.98 ± 0.4 | -2.34 ± 0.27
61 | AUGCAGCAAUAUUACGGUCC | -1.85 ± 0.16 | -0.88 ± 0.17
62 | GUCCAGCAAUAUUACGAAUU | -0.818 ± 0.078 | 0.257 ± 0.097
63 | UGGGAGCAAUAUUACGAGGG | – | -1.99 ± 0.42
64 | AGGCAGCAAUAUUACGUACG | -1.22 ± 0.074 | 0.303 ± 0.1
65 | ACAGAGCAAUAUUACGCGCU | – | -1.91 ± 0.2
66 | AGUUAGCAAUAUUACGACCG | -0.776 ± 0.093 | -0.166 ± 0.13
67 | ACGCAGCAAUAUUACGAAAA | -2.91 ± 0.23 | -2.7 ± 0.2
68 | ACACAGCAAUAUUACGUCGC | -4.02 ± 0.21 | -2.56 ± 0.17
69 | UUCCAGCAAUAUUACGGCGA | -0.331 ± 0.076 | -0.0354 ± 0.097
70 | UACUAGCAAUAUUACGUGUG | -1.37 ± 0.067 | -0.828 ± 0.072
71 | GGACAGCAAUAUUACGUCGG | -0.852 ± 0.099 | -0.674 ± 0.14
72 | CAUAAGCAAUAUUACGUAAC | -3.03 ± 0.23 | -2.1 ± 0.26
73 | GACAAGCAAUAUUACGAACU | -0.214 ± 0.066 | 0.284 ± 0.092
74 | AGACAGCAAUAUUACGCCAA | -2.35 ± 0.15 | -1.1 ± 0.12
75 | GACAAGCAAUAUUACGCCAC | – | -2.64 ± 0.5
76 | AAUAAGCAAUAUUACGAGUC | -3.1 ± 0.28 | -1.48 ± 0.18
77 | AUUAAGCAAUAUUACGUGGC | -2.43 ± 0.15 | -1.71 ± 0.16
78 | UUCAAGCAAUAUUACGGACG | -1.48 ± 0.15 | -0.868 ± 0.18
